From article PMC9927474

System: T1, GST-NolA (Bradyrhizobium guangxiense CCBAU53363), ORF:43be7f56
T1 sequence: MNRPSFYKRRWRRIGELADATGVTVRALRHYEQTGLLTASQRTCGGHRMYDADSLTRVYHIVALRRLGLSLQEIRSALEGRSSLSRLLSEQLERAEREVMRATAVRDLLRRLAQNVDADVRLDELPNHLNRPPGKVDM
Test: EMSA
Details: EMSA: 10 uL, 1x binding buffer (composition, salt and pH not stated), 1 mg/mL BSA, 1 mg/mL salmon sperm DNA, 25 C, 30 min; 6% native PAGE in TB buffer (44.5 mM …)

TGTGAACCATAGGAGAGTGCTCATCATGTACGGTCGAATCAACAATTTTTCCGAGAACGAAACTTATTATCGGCAAGATGCGGAGCATTCGAATTGCGAAAGCCAAGACTTCGCGGACGCGTTCGCTAGAATGCAGTTGCAAGATTCGGCCGGCAG (double strand) [nopP promoter probe]
binding: no binding
